# Source: the supplement of paper PMC10126150
# ± gives the standard deviation of the averaged measurements.
# System: ATP
# Test: switch fluorescence ratio, 500 uM ATP over buffer (Cy3 cluster intensity, sum of 5 cycles each) (fold (ratio)); higher = stronger signal-on switching upon ATP binding; sequences stand for … in TCGTCGGCAGCGTCAGATGTGTATAAGAGACAGTTTTTTTTTTTTTTTTTTTTTTTTT…TC
# Settings: aptamer strand: ATP DNA aptamer (quencher-CACCTGGGGGAGTATTGCGGAGGAAGG + anchor), 100 nM annealed; ATP concentration: 500 uM
# How it was run: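 Values give the fluorescence ratio for each switch-domain sequence, averaged from per-cluster ratios of summed target-cycle to summed buffer-cycle Cy3 intensity. The Cy3-labelled switching-strand clusters sat on a modified Illumina MiSeq flow-cell, were annealed to 100 nM quencher-labelled ATP aptamer, and were imaged in selection buffer, then after 15 min with 500 uM ATP at 22 °C. Five cycles ran with NaOH stripping and re-annealing between them, and clusters outside 100-1000 RFU were excluded.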
# 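Also: ATP exposure 15 min at 22 °C before imaging.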
row,Sequence,switch fluorescence ratio
1,GATCCTTGGG,1.022 ± 0.0056
2,GATCGACTTT,0.958 ± 0.012
3,GATCGAGGGA,1.04 ± 0.14
4,GATCGAGTTA,1.034 ± 0.0073
5,GATCGGCGCG,0.986 ± 0.025
6,GATCGGGGTT,0.994 ± 0.036
7,GATCGGTAAA,0.999 ± 0.013
8,GATCGTAATT,1.06 ± 0.0044
9,GATCGTCTGC,0.925 ± 0.035
10,GATCTATGTC,0.989 ± 0.066
11,GATCTATGTG,1.01 ± 0.042
12,GATCTATGTT,0.996 ± 0.018
13,GATCTGAACT,1 ± 0.059
14,GATCTGCACG,0.9947 ± 0.0032
15,GATCTGTCAG,1.01 ± 0.021
16,GATCTTGCCT,1.02 ± 0.026
17,GATGAAAGTG,0.99 ± 0.025
18,GATGAACGTT,0.984 ± 0.041
19,GATGAAGGTG,1.28 ± 0.061
20,GATGAAGTTG,0.971 ± 0.029
21,GATGAGCCTA,1.01 ± 0.073
22,GATGAGGGCG,1.14 ± 0.23
23,GATGAGGGGG,1.03 ± 0.09
24,GATGAGTATA,1 ± 0.021
25,GATGAGTGTG,0.964 ± 0.041

row,Sequence,switch fluorescence ratio
1,GATGATATGG,0.9852 ± 0.0039
2,GATGATCTTT,0.966 ± 0.014
3,GATGATTTGG,1.02 ± 0.021
4,GATGATTTTG,0.979 ± 0.047
5,GATGCAAAGG,1.131 ± 0.011
6,GATGCAGTGT,1.05 ± 0.014
7,GATGCAGTTT,1.03 ± 0.019
8,GATGCGAAAT,1.06 ± 0.023
9,GATGCGCGTG,1 ± 0.019
10,GATGCGGCGT,1.04 ± 0.021
11,GATGCGTATG,0.997 ± 0.02
12,GATGCTGGGT,1.01 ± 0.014
13,GATGGAACGG,1.05 ± 0.039
14,GATGGACGTT,0.995 ± 0.035
15,GATGGACTTT,1.03 ± 0.013
16,GATGGAGTAA,1.08 ± 0.042
17,GATGGATAGT,0.992 ± 0.02
18,GATGGCGGTG,0.995 ± 0.00091
19,GATGGGCACT,1.05 ± 0.029
20,GATGGGCGGG,1.03 ± 0.055
21,GATGGGGAGG,0.98 ± 0.032
22,GATGGGGGAG,0.999 ± 0.018
23,GATGGGGGGC,1.01 ± 0.043
24,GATGGGGTTT,1 ± 0.014
25,GATGGGTAAA,0.992 ± 0.029

row,Sequence,switch fluorescence ratio
1,GATGGTGGTG,1 ± 0.029
2,GATGGTTTGA,1.02 ± 0.021
3,GATGTAAACG,1.02 ± 0.026
4,GATGTAAGAA,0.993 ± 0.028
5,GATGTAAGGT,1.02 ± 0.029
6,GATGTAATAG,1.57 ± 0.19
7,GATGTAGGAG,0.971 ± 0.019
8,GATGTAGGGC,1 ± 0.028
9,GATGTATAGA,1.01 ± 0.022
10,GATGTATATT,1.002 ± 0.004
11,GATGTATGTG,1.02 ± 0.042
12,GATGTCTAGT,0.983 ± 0.015
13,GATGTCTGGG,0.959 ± 0.027
14,GATGTGAATT,1.02 ± 0.011
15,GATGTGATTC,1.04 ± 0.027
16,GATGTGGGGG,0.99 ± 0.028
17,GATGTGGGTA,0.992 ± 0.045
18,GATGTGGGTG,0.9957 ± 0.0054
19,GATGTGGGTT,1.03 ± 0.032
20,GATGTGTTTT,0.974 ± 0.02
21,GATGTTAAGC,0.9867 ± 0.0095
22,GATGTTATCG,0.99 ± 0.015
23,GATGTTGATT,0.997 ± 0.014
24,GATGTTGTGA,0.9999 ± 0.0076
25,GATGTTGTTG,0.997 ± 0.054

row,Sequence,switch fluorescence ratio
1,GATGTTTAGT,1.04 ± 0.018
2,GATTAAAAGG,1.017 ± 0.0067
3,GATTAAATAG,0.9988 ± 0.0032
4,GATTAATGGC,1.04 ± 0.052
5,GATTACATTT,1.03 ± 0.022
6,GATTAGGGGA,1.01 ± 0.015
7,GATTAGGGGG,1.02 ± 0.043
8,GATTAGTGTT,1.01 ± 0.021
9,GATTATGGGG,1.01 ± 0.013
10,GATTATTGGG,0.988 ± 0.036
11,GATTCCCTAT,0.99995 ± 0.00076
12,GATTCCTCAT,1.015 ± 0.0095
13,GATTCGGTCT,1.02 ± 0.058
14,GATTCGGTTG,0.9897 ± 0.0011
15,GATTCGTACG,1.01 ± 0.016
16,GATTCTCGGG,1.01 ± 0.016
17,GATTCTTATG,1.03 ± 0.036
18,GATTCTTGAA,1.01 ± 0.22
19,GATTGAATAT,0.983 ± 0.032
20,GATTGAATCC,1.01 ± 0.059
21,GATTGAATTG,0.948 ± 0.027
22,GATTGAGAAG,0.996 ± 0.023
23,GATTGAGTAG,0.986 ± 0.016
24,GATTGGCGAG,0.998 ± 0.011
25,GATTGGGCTT,0.998 ± 0.0097

row,Sequence,switch fluorescence ratio
1,GATTGGTGGC,1.04 ± 0.049
2,GATTGTACGA,1.01 ± 0.031
3,GATTGTACTA,0.998 ± 0.019
4,GATTGTAGTG,0.993 ± 0.032
5,GATTGTGCGG,0.981 ± 0.025
6,GATTGTGCTG,0.988 ± 0.01
7,GATTGTGGAC,1.1 ± 0.063
8,GATTTAGAGC,0.973 ± 0.037
9,GATTTAGCTA,1.014 ± 0.0034
10,GATTTAGGAC,0.967 ± 0.044
11,GATTTAGGGA,0.995 ± 0.039
12,GATTTATGAC,1.02 ± 0.038
13,GATTTCAAAC,0.9817 ± 0.0045
14,GATTTCATAG,1.02 ± 0.063
15,GATTTGAAAC,1 ± 0.031
16,GATTTGAGGG,0.973 ± 0.032
17,GATTTGCCGA,1.034 ± 0.005
18,GATTTGGAAG,1.01 ± 0.024
19,GATTTGGAGA,1 ± 0.017
20,GATTTGGCGA,0.992 ± 0.011
21,GATTTGGCTC,1 ± 0.031
22,GATTTGGTTG,0.963 ± 0.026
23,GATTTGTGTG,0.978 ± 0.034
24,GATTTTAATG,0.981 ± 0.013
25,GATTTTAGTT,0.9848 ± 0.0086

row,Sequence,switch fluorescence ratio
1,GATTTTATGT,1.05 ± 0.086
2,GATTTTCGAA,1 ± 0.041
3,GATTTTCGAG,0.994 ± 0.031
4,GATTTTGGAC,1.031 ± 0.0078
5,GATTTTGGTG,0.971 ± 0.023
6,GATTTTGTTA,1.01 ± 0.025
7,GATTTTGTTG,0.979 ± 0.014
8,GATTTTTAAA,1.02 ± 0.035
9,GATTTTTCAG,1.019 ± 0.006
10,GATTTTTTGC,0.98176 ± 0.00098
11,GATTTTTTTG,0.985 ± 0.037
12,GATTTTTTTT,0.989 ± 0.029
13,GCAAAATTTC,1.02 ± 0.085
14,GCAAAGCGTC,0.9824 ± 0.0083
15,GCAAATGGTT,1.01 ± 0.053
16,GCAAATTCCG,1.026 ± 0.0095
17,GCAACGGGTC,1.03 ± 0.025
18,GCAACGGGTT,1.16 ± 0.21
19,GCAACTATT,2.42 ± 2
20,GCAAGAACGC,1.096 ± 0.0023
21,GCAAGGGTAT,1.01 ± 0.025
22,GCAAGGGTGG,1 ± 0.038
23,GCAAGGTAGC,1.07 ± 0.011
24,GCAAGTAGGG,1.02 ± 0.019
25,GCAAGTGTTC,1.01 ± 0.018

row,Sequence,switch fluorescence ratio
1,GCAATATGCA,1.03 ± 0.05
2,GCAATATTTC,2.31 ± 0.35
3,GCAATCGGGA,1.2 ± 0.087
4,GCAATTTGGT,1.03 ± 0.02
5,GCAATTTTTG,1.002 ± 0.0066
6,GCACACAAAA,1.05 ± 0.012
7,GCACATTGCT,1.02 ± 0.013
8,GCACCAATT,1.06 ± 0.072
9,GCACCATAGC,1.06 ± 0.011
10,GCACCTCAAT,1.25 ± 0.037
11,GCACGATGGT,0.972 ± 0.01
12,GCACGGGCAC,1.18 ± 0.18
13,GCACTAGGGA,0.9908 ± 0.0062
14,GCACTTTTCG,1.01 ± 0.025
15,GCAGAATATT,0.998 ± 0.029
16,GCAGACGGTG,1.05 ± 0.013
17,GCAGATGATC,1.027 ± 0.0014
18,GCAGATGCCT,1 ± 0.023
19,GCAGATTGGC,1.034 ± 0.01
20,GCAGATTTGG,0.978 ± 0.026
21,GCAGCGGACT,1.29 ± 0.042
22,GCAGCGGCTG,0.994 ± 0.014
23,GCAGCGGGGC,1.28 ± 0.038
24,GCAGCTGGCA,0.984 ± 0.017
25,GCAGGAAAAC,1.04 ± 0.018

row,Sequence,switch fluorescence ratio
1,GCAGGAAGAG,1.0184 ± 0.00041
2,GCAGGAAGGC,1.089 ± 0.0071
3,GCAGGACATA,1.06 ± 0.027
4,GCAGGACGGA,1.03 ± 0.04
5,GCAGGAGCAT,1.03 ± 0.052
6,GCAGGCACGG,0.976 ± 0.028
7,GCAGGGAGAG,0.964 ± 0.022
8,GCAGGGCGGG,0.99 ± 0.011
9,GCAGGGGAGG,1 ± 0.036
10,GCAGGGGGTA,0.999 ± 0.027
11,GCAGGGGTTC,1.16 ± 0.15
12,GCAGGTGTTC,1.14 ± 0.02
13,GCAGTACGGG,1.42 ± 0.26
14,GCAGTGGGTG,0.998 ± 0.012
15,GCAGTGTCCA,1.01 ± 0.032
16,GCAGTGTGCG,0.985 ± 0.025
17,GCAGTTGAGT,1.01 ± 0.017
18,GCAGTTTGTT,0.978 ± 0.019
19,GCATAACAGG,1.04 ± 0.045
20,GCATAAGATG,1 ± 0.024
21,GCATAGCAAT,1.054 ± 0.003
22,GCATATGGTT,0.988 ± 0.016
23,GCATATTTGA,0.981 ± 0.015
24,GCATCATATG,0.998 ± 0.028
25,GCATCATGTT,0.987 ± 0.044
